Target: GST-NFκBp65 C418 (GST-trans-activation domain only of NFκBp65) [GST: P08515]
Sequence (P08515 whole entry, looked up, the tested form may be a part): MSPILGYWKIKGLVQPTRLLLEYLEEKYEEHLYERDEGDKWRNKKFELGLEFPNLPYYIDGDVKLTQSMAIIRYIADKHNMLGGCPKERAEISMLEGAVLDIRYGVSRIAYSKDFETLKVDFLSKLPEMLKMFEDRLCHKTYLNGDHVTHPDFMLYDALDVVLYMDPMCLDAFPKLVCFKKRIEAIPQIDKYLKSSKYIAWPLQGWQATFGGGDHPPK

B1: Cdk8 (53 kD cytosolic protein kinase of Molt-4 extracts) (protein)
chain: MDYDFKVKLSSERERVEDLFEYEGCKVGRGTYGHVYKAKRKDGKDDKDYALKQIEGTGISMSACREIALLRELKHPNVISLQKVFLSHADRKVWLLFDYAEHDLWHIIKFHRASKANKKPVQLPRGMVKSLLYQILDGIHYLHANWVLHRDLKPANILVMGEGPERGRVKIADMGFARLFNSPLKPLADLDPVVVTFWYRAPELLLGARHYTKAIDIWAIGCIFAELLTSEPIFHCRQEDIKTSNPYHHDQLDRIFNVMGFPADKDWEDIKKMPEHSTLMKDFRRNTYTNCSLIKYMEKHKVKPDSKAFHLLQKLLTMDPIKRITSEQAMQDPYFLEDPLPTSDVFAGCQIPYPKREFLTEEEPDDKGDKKNQQQQQGNNHTNGTGHPGNQDSSHTQGPPLKKVRVVPPTTTSGGLIMTSDYQRSNPHAAYPNPGPSTSQPQSSMGYSATSQQPPQYSHQTHRY
CTD phosphorylation in in vitro kinase reaction (GST-CTD substrate): kinase activity was only mildly detected in GST-NFκBp65 C418/cytosolic protein complexes

From patent publication US20050158302
